The values below are quoted from earlier work in article PMC4932920.

For data set [1], the target named is T1, His89 (UniProt position 90, SDLHAHKLRVD). As to the kind of experiment: other (H/D exchange of individual histidine residues).
Data set [2] has as its target T2, His20 (UniProt position 21, GKVGAHAGEYG). Described as above.
The target in data set [3] is T3, His72 (UniProt position 73, TNAVAHVDDMP). The description is as above.
Data set [4] deals with T4, His112 (UniProt position 113, VTLAAHLPAEF). Described as above.
In data set [5] the target is T5, His50 (UniProt position 51, HFDLSHGSAQV). The description is as above.
The target of data set [6] is T1, His89. Nature of the data set: NMR.
For data set [7], the target named is T2, His20. Nature of the data set: NMR.
The target in data set [8] is T3, His72. Nature of the data set: NMR.
Data set [9] addresses T4, His112. As to the kind of experiment: NMR.
For data set [10], the target named is T5, His50. As to the kind of experiment: NMR.
Another data set deals with His103 (UniProt position 104, FKLLSHCLLVT). As to the kind of experiment: other (histidine H/D exchange).
The target of data set [11] is T6, His97 (UniProt position 98, HCDKLHVDPEN). As to the kind of experiment: other (H/D exchange of individual histidine residues).
Data set [12] has as its target T7, His77 (UniProt position 78, SDGLAHLDNLK). Described as above.
Data set [13] concerns the target T8, His143 (UniProt position 144, ANALAHKYH--). The description is as above.
Data set [14] addresses T9, His146 (UniProt position 147, LAHKYH-----). Described as above.
Data set [15] addresses T6, His97. As to the kind of experiment: NMR.
For a further data set, the target named is His117 (UniProt position 118, CVLAHHFGKEF). Nature of the data set: NMR.
Data set [16] addresses T7, His77. Nature of the data set: NMR.
Data set [17] deals with T8, His143. As to the kind of experiment: NMR.
In data set [18] the target is T9, His146. As to the kind of experiment: NMR.
[19] abbreviates: carbonmonoxy (CO-liganded) hemoglobin, R state.

With “Hemoglobin A (adult human hemoglobin), alpha chain (Homo sapiens)”, the pKa with His89 [1] (setting [19]) was 5.6; with His89 [1] (deoxy hemoglobin, T state), 7.2; with His20 [2] (setting [19]) it was 7.0; with His20 [2] (deoxy hemoglobin, T state), 7.6; in the data set with His72 [3] (setting [19]), 7.1; in the data set with His72 [3] (deoxy hemoglobin, T state), 7.3. The pKa with His112 [4] (setting [19]) is 8.1; in the data set with His112 [4] (deoxy hemoglobin, T state), 8.1; with His50 [5] (setting [19]), 7.1; with His50 [5] (deoxy hemoglobin, T state) it was 7.2; with His89 [6] (setting [19]) it was 6.25; with His89 [6] (deoxy hemoglobin, T state) it was 6.80. Also, the pKa with His20 [7] (setting [19]) is on record as 7.08; in the data set with His20 [7] (deoxy hemoglobin, T state) it was 7.02; with His72 [8] (setting [19]) it was 7.27; in the data set with His72 [8] (deoxy hemoglobin, T state) it was 7.47; in the data set with His112 [9] (setting [19]) it was 7.53; with His112 [9] (deoxy hemoglobin, T state), 7.49. Besides, the pKa with His50 [10] (setting [19]) is 6.90; in the data set with His50 [10] (deoxy hemoglobin, T state), 7.14.

Regarding “Hemoglobin A (adult human hemoglobin), alpha chain residue titrated (Homo sapiens)”, the pKa is 7.1 with His103 (setting [19]) and 7.1 with His103 (deoxy hemoglobin, T state).

As to “Hemoglobin A (adult human hemoglobin), beta chain (Homo sapiens)”, the pKa was 6.4 in the data set with His97 [11] (setting [19]); 6.4 in the data set with His97 [11] (deoxy hemoglobin, T state); 7.8 with His77 [12] (setting [19]); 7.8 in the data set with His77 [12] (deoxy hemoglobin, T state); 6.1 with His143 [13] (setting [19]); 5.6 in the data set with His143 [13] (deoxy hemoglobin, T state). Besides, the pKa with His146 [14] (setting [19]) was 7.0; with His146 [14] (deoxy hemoglobin, T state), 8.1; with His97 [15] (setting [19]), 7.75; in the data set with His97 [15] (deoxy hemoglobin, T state), 8.01; with His117 (setting [19]) it was 6.39; with His117 (deoxy hemoglobin, T state), 6.43. Also, the pKa with His77 [16] (setting [19]) is given as 7.79; with His77 [16] (deoxy hemoglobin, T state) it was 7.47; with His143 [17] (setting [19]) it was 5.57; in the data set with His143 [17] (deoxy hemoglobin, T state) it was 4.70; with His146 [18] (setting [19]), 6.42; with His146 [18] (deoxy hemoglobin, T state), 7.93.

Broadly, the pKa is the pH at which an ionisable group is half protonated.
